{
  "source": "patent US20060217299",
  "proteins": {"B1": {"name": "caspase-1 (Calbiochem, Co., Ltd.) (protein)", "chain": "NPAMPTSSGSEGNVKLCSLEEAQRIWKQKSAEIYPIMDKSSRTRLALIICNEEFDSIPRRTGAEVDITGMTMLLQNLGYSVDVKKNLTASDMTTELEAFAHRPEHKTSDSTFLVFMSHGIREGICGKKHSEQVPDILQLNAIFNMLNTKNCPSLKDKPKVIIIQACRGDSPGVVWFKDSVGVSGNLSLPTTEEFEDDAIKKAHIEKDFIAFCSSTPDNVSWRHPTMGSVFIGRLIEHMQEYACSCDVEEIFRKVRFSFEQPDGRAQMPTTERVTLTRCFYLFPGH"}},
  "key": {"[1]": {"target": "GST [GST: P08515]"}, "[2]": {"target": "GST-XIP (D25A)"}, "[3]": {"target": "GST-XIP (D25A, D70A)"}, "[4]": {"target": "GST-XIP (D25A, D70A, D80A)"}, "[5]": {"target": "GST-XIP (D39A) [GST: P08515]"}, "[6]": {"target": "GST-XIP (D58A)"}, "[7]": {"target": "GST-XIP (D70A)"}},
  "data": [
    {"protein": "B1", "values": [
      {"measurement": "caspase-1 protease assay (SDS-PAGE, western blotting with anti-GST antibody)", "setting": "[1]", "result": "GST was not cleaved by caspase-1"},
      {"measurement": "caspase-1 protease assay (SDS-PAGE, western blotting with anti-GST antibody)", "setting": "[2]", "result": "fragment located at the higher molecular weight side was detected; fragment located at the lower molecular weight side not detected when using GST-XIP (D25A)"},
      {"measurement": "caspase-1 protease assay (SDS-PAGE, western blotting with anti-GST antibody)", "setting": "[3]", "result": "When using GST-XIP (D25A, D70A) as a substrate, a new fragment other than the aforementioned fragments was detected"},
      {"measurement": "caspase-1 protease assay (SDS-PAGE, western blotting with anti-GST antibody)", "setting": "[4]", "result": "This fragment was not detected when using GST-XIP (D25A, D70A, D80A) as a substrate"},
      {"measurement": "caspase-1 protease assay (SDS-PAGE, western blotting with anti-GST antibody)", "setting": "[5]", "result": "fragment located at the higher molecular weight side was detected; fragment located at the lower molecular weight side was detected when using GST-XIP (D39A)"},
      {"measurement": "caspase-1 protease assay (SDS-PAGE, western blotting with anti-GST antibody)", "setting": "[6]", "result": "fragment located at the higher molecular weight side was detected; fragment located at the lower molecular weight side was detected when using GST-XIP (D58A)"},
      {"measurement": "caspase-1 protease assay (SDS-PAGE, western blotting with anti-GST antibody)", "setting": "[7]", "result": "fragment located at the higher molecular weight side not detected when using GST-XIP (D70A); fragment located at the lower molecular weight side was detected"}
    ]}
  ]
}
